For assay [1], the target named is T1, Human VSIG4-L-Fc (human).
T1 construct: also called hVSIG4-L-Fc; hVSIG4-L
Briefly: BLI binning on hVSIG4-L-Fc, competitor 14C05 first.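 Note: normalized to binding of second antibody without first competitor antibody.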

Assay [2] concerns the target T1, Human VSIG4-L-Fc. Briefly: BLI binning on hVSIG4-L-Fc, competitor 15C03 first.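 Note: normalized to binding of second antibody without first competitor antibody.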
For assay [3], the target named is T1, Human VSIG4-L-Fc. Briefly: BLI binning on hVSIG4-L-Fc, competitor 15C04 first.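 Note: normalized to binding of second antibody without first competitor antibody.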
The target of assay [4] is T1, Human VSIG4-L-Fc. Briefly: BLI cross-blocking on hVSIG4-L-Fc, competitor 14C05 first.
Assay [5] has as its target T1, Human VSIG4-L-Fc. Nature of the assay: BLI cross-blocking on hVSIG4-L-Fc, competitor 12A12 first.
The target of assay [6] is T1, Human VSIG4-L-Fc. Briefly: ligand competition ELISA (FJB), blocked ligand iC3b. (In an ELISA, binding on a coated surface is turned into a signal by an enzyme label.)
For assay [7], the target named is T1, Human VSIG4-L-Fc. Briefly: BLI binning on hVSIG4-L-Fc, competitor 12A12 first.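 Note: normalized to binding of second antibody without first competitor antibody.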
The target in assay [8] is T2, Human VSIG4-L-CHO (human VSIG4 long isoform on CHO-K1 cells) (human, UniProt Q9Y279 20-399).
T2 construct: also called hVSIG4-L (flow cytometry)
T2 sequence: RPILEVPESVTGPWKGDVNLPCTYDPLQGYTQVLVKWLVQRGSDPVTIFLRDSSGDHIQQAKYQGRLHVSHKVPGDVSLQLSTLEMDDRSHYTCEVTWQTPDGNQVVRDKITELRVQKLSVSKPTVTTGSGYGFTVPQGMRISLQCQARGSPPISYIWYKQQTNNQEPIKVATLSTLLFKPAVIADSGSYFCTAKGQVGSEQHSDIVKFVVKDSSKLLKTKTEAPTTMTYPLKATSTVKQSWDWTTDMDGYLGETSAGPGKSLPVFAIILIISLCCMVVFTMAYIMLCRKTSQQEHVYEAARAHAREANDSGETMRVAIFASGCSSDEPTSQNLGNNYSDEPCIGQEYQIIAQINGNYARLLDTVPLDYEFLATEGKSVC
Briefly: flow cytometry, CHO-K1 cells expressing hVSIG4-L. On the technique in general: A flow cytometer gives signals particle by particle.

The target in assay [9] is T1, Human VSIG4-L-Fc. Nature of the assay: BLI binning on hVSIG4-L-Fc, competitor 15A06 first.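 Note: normalized to binding of second antibody without first competitor antibody.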
Assay [10] has as its target T1, Human VSIG4-L-Fc. Nature of the assay: BLI binning on hVSIG4-L-Fc, competitor 13H11 first.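 Note: normalized to binding of second antibody without first competitor antibody.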
Assay [11] deals with T1, Human VSIG4-L-Fc. Briefly: BLI binning on hVSIG4-L-Fc, competitor 16E03 first.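 Note: normalized to binding of second antibody without first competitor antibody.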

Broadly, the IC50 is the concentration at which inhibition is half-maximal. As a reminder, the EC50 is the concentration giving half of the maximal effect. A high value points to a need for much substance.

B1: 12A12 mouse/human chimeric IgG4 (S228P) kappa (antibody, V domains shown)
VH: QVQMKQSGAELAKPGASVKMSCKASGYTFTNYWMHWVKQRPGQGLEWIGYINPSTGYTDYNQNFKDRATLTADKSSSTAYMQLSSLTSEDSAVYYCIRGSDYYGRDYWGQGTTLTVSS
VL: DIQMTQTTSSLSASLGDRVTISCRASQDISNYLNWYQQKPDGTLKLLIYYTSRLHSGVPSRFSGSGSGTDYSLTISNLEQEDIATYFCRQGNTLPWTFGGGTKLEIKR
As for B1, the “normalized maximum binding nm shift” value in assay [1] worked out at 0.72 normalized; in assay [2], 0.65 normalized; in assay [3], 0.76 normalized; in assay [7], 0.13 normalized; in assay [9], 0.77 normalized; in assay [10], 0.74 normalized. Further, the “normalized maximum binding nm shift” value in assay [11] was 0.64 normalized. Further, the “binding signal (nm shift)” value was 0.72 nm in [4] and 0.13 nm in assay [5]. Further, the IC50 in [6] amounted to 0.5 nM. In [8], this molecule yielded an EC50 of 4.4 nM.

Source of the values: patent publication US20230348603A1 (VERSEAU THERAPEUTICS, published 2023).
